# Test results as given in the domain aggregation screens of Martell et al. (2025).
# Assay: soluble fraction after stress (log2 fold change); higher = more stays soluble; pooled small domains, quantitative proteomics
# Details: stress: 50 degC
# Procedure, shortened: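 The measure of aggregation propensity here is the base-two logarithm of the fold change in the soluble amount of each protein after stress. A higher value means more of that protein stays in solution. Stress was applied at 50°C to pooled libraries of small protein domains, read out by high-throughput quantitative proteomics.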
row,Sequence,soluble fraction (log2)
1,HMATTPEETILEYINKNNRISKQEIADLMGITRDGVSYHIKKLRKNGLLEWIGSPSNGHWEIIE,0.274
2,HMIKRDLAFSEFIAEVKAGQVREVTIKGNSISGNLNDGREFNTYAPNDPNLVKTLTDQGVLIRAIPLE,-0.0273
3,HMYPNEFPRKVMSVFESSGLEMFRTIEMLLAIPEYETPLPYGSGVSRSDIFVLAKSAGNLVSITV,0.00886
4,HMVKDIEFSLPLEQDYYKVLISVKDSQGKRQVYEELHRAGDTVYAAVRYYGSGELEIHLNGKFYKTIK,-0.521
5,HMPSQEQSDKNAAMAFLPVIVKNALNGKGLKISDDWKAAVNTALAQYPLVNKFFNADSPEVTELVMGL,-0.0489
6,HMKELLDRIFLHETMRRVSQDATITFSKKVYEVPQKFIGRQVTVQYDPEDLSRVYVKDLNFPEPVMVYPVQ,-0.843
7,HMQERNYIVRRGDTLWDLAKTYYGSGTKYTVIYDANRDNIEAEAKRRGKQSSNGGYWIYPGTELTI,-0.368
8,HMGLLEMPSERERQVLVLIAEGLSNKEIAARLYLTEGTVKNHAHSLYAKLNVTTRTLAIARARQLGI,-1.54
9,HMKVFREERLQLILEKLIHEKKVVVSDLVKYFNVSPSLIRMDLAELEKRDLILRTHGGAILPD,-2.23
10,HMQNLISSDEAKNIALQHANLTDNQVTFIKVSKDYDDGIHIYEVEFHYNNREYNYDINAINGTILSYEQ,-0.574
11,HMTAPELSVGDYLEYRGKEYKVESLDMDGFITLTDTALEDAPRLISRVTFLTDEFIRSGEYMVIT,-0.169
12,HMQKYSTIIGVIELRQSGIGYRTTKKRYNIGNSTVTLIMNRFHELGLSLEELKAMPPKKVEEAFYPPE,-2.43
13,HMEETLEELGKEYESAFTMYEKLWSYYKKQNYHQVNHKRSERYEILLGFVREYHPEKVEYYRELL,0.0169
14,HMNPSAFSEYSFELLQSALLKKKIDENLSNQTIARDAGVSEAFVQKVLTNNVKRPSVKNRVRMISYLGLD,-1.22
15,HMALYSEQVSEIEKALMSLPPKYQLVMLLLYAEDLKYEQIAEILDEPIGTVKTKIHRARKILKERF,-0.46
16,HMFPELDEEEQKITKLLQAQNDLPANIIAVKTALNIGTTQAKLFSLEMKGVVKPYAGGFYHLL,-0.25
17,HMKAMIIVMKPGADMATISKVLKTIETNGFKPHLSKGEETTVIGVIGDERKLNPDIFSTLEGVERIVPVA,0.255
18,HMAVDAASSTIGKNVEVSVANEKGDYENFNGKVKSASIKDGVVYLELELKDTGEIKEVPYSSLTKIT,0.0595
19,HMYNSYALTARELELVNYVLKGNSRREMAEDSGLKENTVASYMKRLYRKIKVHSRKELKELFM,-0.0805

row,Sequence,soluble fraction (log2)
1,HMQDLTAQQQAILSFLKEHPKATRKEISENIPNITEDNIRYNLSQLQELGFVKSMGDSFIRIAI,0.0658
2,HMTDVIADMLTRIRNAASSKHQTVDIPSSNLKKEIAKILLEEGYIRDFIEIDDKKQGIIRITL,-0.389
3,HMSLRVIEIFGTPQQMSARISLMDGSVTDVKVGQSIPGTSYKVASITGNGVWIQNGTAVSYTHL,-1.3
4,HMKTATAKIKATPFGWLRVRETPSLNGAEIARVNSGESYKILERGEGWIKIKVSDTVEGWVSEAYVELS,-0.102
5,HMGVGVPVTLLLEKLGEDTLSAQQIMERLGLKSRASFRKVYLVPALEQKLIEMEFPDKPNSSKQRYRR,-0.853
6,HMDRSLYVGDAVGFDSARGLMEIEVKNKFSVVAVSLKKKPSGNFITPLLRMEKKKGEAVTVAPGSGHR,-0.33
7,HMAIDYYQTLINLGYKLQDRGDYWQTSAIHRGGDNPTALQIYKNTGVWKDYVSGGGFKPFKALVEKSD,-0.802
8,HMELSESLENYLVVIYEAHLRNEIARIKDMTASLSVKHTSAIDAIKKLEDLGIVNYEKRGFVKLTQSGIEK,0.0501
9,HMNHYIGVDRAKEIALNHANLSETDVVFTKEKLENDDGGAEYEIEFHSGRTEYDYTIDAASGNIIEYDVDY,0.421
10,HMNGEDVTDAIRLPQISQYASVVSAYPGVRAFLLEMQRDFARKGSVIMDGRDIGTVVLPEAEVKIFLT,-0.025
11,HMTRHSSVDFAGYILRNKENEPIFGFGKHKGKTVVEVLQREQGYFGWLMEADFPLYTKKVLTAIRLNTLNS,-0.117
12,HMNVPATAEAYEALLADAESVGKSLWGHEAKRFAAEQALLSAGLREVIQVDPDKARELALRLRGLLDEYRG,0.13
13,HMSDQTYVKDPETGEIFRVHKRVWETGEFWRDPVWGNILGGVERGSELERLLREEGWRPLQQSLEGFPEQ,-0.104
14,HMNDPFVILGVSKDASQSEILEAYKQKRAYYQERVFDEGDEGAQAARMLTQLDDAYQQAMELSHES,-0.151
15,HMIMMTLGEKIRSIRKAKGMTQQELAEKLNTTKQTIGKYEKGIVTNLPLFRINELARALSTTPAYLTGW,-1.41
16,HMTEAVYMPALQNKTLEEAQRIVEQYDLELEYTYEANAQVEEGRILSQTPQMGVLVERGEKVQAVVSLG,0.571
17,HMRQHHMIISTKLGTPKEELAKLVSGFEDQGLRVSVITGTDYTVIGLVGDTTHLDEKRIRANPYVDNVQRV,-0.0184
18,HMNAELSTVQAAEVLNVSRPFLIKLLEDGAIPHRKVGKHRRVRMEDVMSYKAAIDTEREAVLDQLAA,0.123
19,HMLGERIKQIRKQKKMTQTDVATGIITKSMLSMIENGKATPSLPALQAIARRLQVTVEELML,-0.512
